The nature of data set [1]: Zeta potential measurement. As to conditions: FIG. 11: SUVs of HSPC and DSG-PMPC. The class given is physicochemical.
Data set [2] can be described thus: Micelle formation in water by dynamic light scattering. The class given is physicochemical. The following applies: 20 mg/ml in pure water (pH 5), one day.

For the substance “1,2-distearoyl-sn-glycerol-poly((O-(2-methacryloyloxyethyl) phosphorylcholine) [DSG-PMPC]”, the “net charge (zeta potential)” value in data set [1] was “zero”.

As for “distearoylphosphatidylethanolamine-substituted poly(O-(2-methacryloyloxyethyl)phosphorylcholine) [DSPE-PMPC]”, the micelle formation result in data set [2] was “formed micelles”.
